Experimental data taken from patent US20120316071A1 (published 2012).

Experiments:
[1] = biological target: T1, rHuman CD44/Fc Chimera, CF (R&D Systems Cat#3660-CD) (human, UniProt P16070 21-220); test: ECL multispot (MSD) binding assay, antigens spotted on plate, 20 nM Fab;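 further: fab incubated 1 h at 20 °C on antigen-spotted wells, bound Fab detected by TAG-labelled antibody, ratio of 4 or more over blank counted as a hit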
T1 construct: Bought recombinant protein; Fc part of the bought chimera not given

[2] = biological target: T2, rHuman IGF-1 sR, (IGF-1 sR), CF (R&D Systems Cat#391-GR) (human, UniProt P08069 31-932); test: as above
T2 construct: Bought recombinant soluble receptor; The column head prints only 'IGF-1'; also called insulin-like growth factor-1 soluble receptor

[3] = biological target: T3, rHuman EGF R/Fc Chimera, CF (R&D Systems Cat#344-ER) (human, UniProt P00533 25-645); test: as above
T3 construct: Bought recombinant protein; also called epidermal growth factor receptor; Fc part of the bought chimera not given

[4] = biological target: T4, rHuman ErbB2/Fc Chimera, CF (R&D Systems Cat#1129-ER) (human, UniProt P04626 23-652); test: as above
T4 construct: Bought recombinant protein; also called human epidermal growth factor 2 receptor; Fc part of the bought chimera not given

[5] = biological target: T5, rHuman Erythropoietin R/Fc Chimera, CF (R&D Systems Cat#963-ER) (human, UniProt P19235 25-250); test: as above
T5 construct: Bought recombinant protein; also called EPO R; Epo R; Fc part of the bought chimera not given
T5 sequence (looked up): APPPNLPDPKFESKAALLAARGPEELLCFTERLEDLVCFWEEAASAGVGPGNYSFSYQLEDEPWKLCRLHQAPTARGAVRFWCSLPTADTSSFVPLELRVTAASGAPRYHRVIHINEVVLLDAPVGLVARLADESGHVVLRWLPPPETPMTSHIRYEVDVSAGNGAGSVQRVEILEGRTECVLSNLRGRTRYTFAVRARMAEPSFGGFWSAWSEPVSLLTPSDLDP

[6] = biological target: T6, Recombinant Human DLL4 (R&D Systems Cat#1506-D4/CF) (human, UniProt Q9NR61 27-524); test: as above
T6 construct: Bought recombinant protein; also called delta-like protein 4; rHuman DLL4

[7] = biological target: T7, rHuman P-Cadherin/Fc Chimera, CF (R&D Systems Cat#861-PC) (human, UniProt P22223 108-654); test: as above
T7 construct: Bought recombinant protein; Fc part of the bought chimera not given

[8] = biological target: T8, rHuman CD44/Fc Chimera, CF (R&D Systems Cat#3660-CD) (human, UniProt P16070 21-220); test: ECL (MSD) multispot binding assay, antigen spotted on plate, 20 nM Fab;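 further: purified Fab incubated 1 h at 20 °C on antigen-spotted plate, bound Fab revealed with TAG detection antibody, ECL read, antigen signal divided by same-well blank, ratio ≥4 counted as hit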
T8 construct: Bought reagent; Fc part of the bought chimera not given

[9] = biological target: T9, rHuman Notch-1/Fc Chimera, CF (R&D Systems Cat#3647-TK) (human, UniProt P46531 19-526); test: as above
T9 construct: Bought reagent; Fc part of the bought chimera not given

[10] = biological target: T10, rHuman P-Cadherin/Fc Chimera, CF (R&D Systems Cat#861-PC) (human, UniProt P22223 108-654); test: as above
T10 construct: Bought reagent; Fc part of the bought chimera not given

[11] = biological target: T11, rHuman ErbB2/Fc Chimera, CF (R&D Systems Cat#1129-ER) (human, UniProt P04626 23-652); test: as above
T11 construct: Bought reagent; also called human epidermal growth factor 2 receptor; Fc part of the bought chimera not given

[12] = biological target: T12, Recombinant Human DLL4 (R&D Systems Cat#1506-D4/CF) (human, UniProt Q9NR61 27-524); test: as above
T12 construct: Bought recombinant protein; also called delta-like protein 4; rHuman DLL4

[13] = biological target: T13, rHuman Erythropoietin R/Fc Chimera, CF (R&D Systems Cat#963-ER) (human, UniProt P19235 25-250); test: as above
T13 construct: Bought reagent; also called EPO R; EPO R/Fc; Fc part of the bought chimera not given
T13 sequence (looked up): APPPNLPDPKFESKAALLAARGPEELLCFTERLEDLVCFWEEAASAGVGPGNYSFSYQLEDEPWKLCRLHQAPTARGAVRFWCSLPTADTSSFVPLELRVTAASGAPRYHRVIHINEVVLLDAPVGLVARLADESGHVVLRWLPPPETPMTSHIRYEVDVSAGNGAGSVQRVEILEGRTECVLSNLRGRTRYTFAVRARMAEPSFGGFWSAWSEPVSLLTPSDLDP

[14] = biological target: T14, rHuman EGF R/Fc Chimera, CF (R&D Systems Cat#344-ER) (human, UniProt P00533 25-645); test: as above
T14 construct: Bought reagent; also called epidermal growth factor receptor; Fc part of the bought chimera not given

[15] = biological target: T15, rHuman IGF-1 sR, CF (R&D Systems Cat#391-GR) (human, UniProt P08069 31-932); test: as above
T15 construct: Bought soluble receptor; also called insulin-like growth factor-1 soluble receptor

[16] = biological target: T16, rHuman IGF-1 sR, (IGF-1 sR), CF (R&D Systems Cat#391-GR) (human, UniProt P08069 31-932); test: as above
T16 construct: Bought recombinant soluble receptor; also called insulin-like growth factor-1 soluble receptor

[17] = biological target: T17, rHuman P-Cadherin/Fc Chimera, CF (R&D Systems Cat#861-PC) (human, UniProt P22223 108-654); test: as above
T17 construct: Bought recombinant protein; Fc part of the bought chimera not given

[18] = biological target: T18, rHuman ErbB2/Fc Chimera, CF (R&D Systems Cat#1129-ER) (human, UniProt P04626 23-652); test: as above
T18 construct: Bought recombinant protein; also called human epidermal growth factor 2 receptor; Fc part of the bought chimera not given

[19] = biological target: T19, rHuman EGF R/Fc Chimera, CF (R&D Systems Cat#344-ER) (human, UniProt P00533 25-645); test: as above
T19 construct: Bought recombinant protein; also called epidermal growth factor receptor; Fc part of the bought chimera not given

[20] = biological target: T20, Recombinant Human DLL4 (R&D Systems Cat#1506-D4/CF) (human, UniProt Q9NR61 27-524); test: as above; remark: listed apart in the source
T20 construct: Bought recombinant protein; also called delta-like protein 4; rHuman DLL4

Binder	ECL multispot value [8]	ECL multispot value [9]	ECL multispot value [10]	ECL multispot value [11]	ECL multispot value [12]	ECL multispot value [13]	ECL multispot value [14]	ECL multispot value [15]	further results
Fab VH3-23_IGHD2-21*01>3_IGHJ6*01 H100E/S108P/Y113G Y110I & V2-13_IGLJ2*01 (Fab, V domains shown, Tested as Fab made in E. coli: VH joined to CH1 (His and Flag tags), VL joined to lambda CL; also called EPG Y110I) VH: not shown VL: SSELTQDPAVSVALGQTVRITCQGDSLRSYYASWYQQKPGQAPVLVIYGKNNRPSGIPDRFSGSSSGNTASLTITGAQAEDEADYYCNSRDSSGNHLVVFGGGTKLTVL	–	–	–	–	–	–	–	–	ECL multispot signal (ratio to blank; column not labelled) [1]: 1.7; ECL multispot signal (ratio to blank; column not labelled) [2]: 1.4; ECL multispot signal (ratio to blank; column not labelled) [3]: 8.6; ECL multispot signal (ratio to blank; column not labelled) [4]: 11.4; ECL multispot signal (ratio to blank; column not labelled) [5]: 73.7; ECL multispot signal (ratio to blank; column not labelled) [6]: 2; ECL multispot signal (ratio to blank; column not labelled) [7]: 39
Fab VH3-23_IGHD2-21*01>3_IGHJ6*01 H100E/S108P/Y113G Y114I & V2-13_IGLJ2*01 (Fab, V domains shown, Tested as Fab made in E. coli (VH-CH1 with His and Flag tags; lambda CL); also called EPG Y114I) VH: not shown VL: SSELTQDPAVSVALGQTVRITCQGDSLRSYYASWYQQKPGQAPVLVIYGKNNRPSGIPDRFSGSSSGNTASLTITGAQAEDEADYYCNSRDSSGNHLVVFGGGTKLTVL	1.8	2.6	22.6	11.4	2.4	162	7.1	1.4	–
Fab VH3-23_IGHD2-21*01>3_IGHJ6*01 H100E/S108P/Y113G Y110W & V2-13_IGLJ2*01 (Fab, V domains shown, Tested as Fab made in E. coli: VH joined to CH1 (His and Flag tags), VL joined to lambda CL; also called EPG Y110W) VH: not shown VL: SSELTQDPAVSVALGQTVRITCQGDSLRSYYASWYQQKPGQAPVLVIYGKNNRPSGIPDRFSGSSSGNTASLTITGAQAEDEADYYCNSRDSSGNHLVVFGGGTKLTVL	–	–	–	–	–	–	–	–	ECL multispot signal (ratio to blank; column not labelled) [3]: 7.6; ECL multispot signal (ratio to blank; column not labelled) [4]: 16.5; ECL multispot signal (ratio to blank; column not labelled) [5]: 117; ECL multispot signal (ratio to blank; column not labelled) [7]: 38.8
Fab VH3-23_IGHD2-21*01>3_IGHJ6*01 H100E/S108P/Y113G Y114W & V2-13_IGLJ2*01 (Fab, V domains shown, Tested as Fab made in E. coli (VH-CH1 with His and Flag tags; lambda CL); also called EPG Y114W) VH: not shown VL: SSELTQDPAVSVALGQTVRITCQGDSLRSYYASWYQQKPGQAPVLVIYGKNNRPSGIPDRFSGSSSGNTASLTITGAQAEDEADYYCNSRDSSGNHLVVFGGGTKLTVL	1.6	2.2	16.7	9.3	1.9	–	6.6	1.1	–
Fab VH3-23_IGHD2-21*01>3_IGHJ6*01 H100E/S108P/Y113G Y114S & V2-13_IGLJ2*01 (Fab, V domains shown, Tested as Fab made in E. coli (VH-CH1 with His and Flag tags; lambda CL); also called EPG Y114S) VH: not shown VL: SSELTQDPAVSVALGQTVRITCQGDSLRSYYASWYQQKPGQAPVLVIYGKNNRPSGIPDRFSGSSSGNTASLTITGAQAEDEADYYCNSRDSSGNHLVVFGGGTKLTVL	1.4	2.9	15.8	8.7	2.2	68.5	5	1.3	–
Fab VH3-23_IGHD2-21*01>3_IGHJ6*01 H100E/S108P/Y113G/Y111W & V2-13_IGLJ2*01 (Fab, V domains shown, Fab made in E. coli: VH joined to CH1 (with His and Flag tags, plasmid A) and VL to lambda CL (plasmid E); also called EPG Y111W) VH: not shown VL: SSELTQDPAVSVALGQTVRITCQGDSLRSYYASWYQQKPGQAPVLVIYGKNNRPSGIPDRFSGSSSGNTASLTITGAQAEDEADYYCNSRDSSGNHLVVFGGGTKLTVL	–	–	–	–	–	–	–	–	ECL signal/blank ratio [16]: 1.4; ECL signal/blank ratio [17]: 49.2; ECL signal/blank ratio [18]: 26.5; ECL signal/blank ratio [19]: 16.3; ECL signal/blank ratio [20]: 2.8
Fab VH3-23_IGHD2-21*01>3_IGHJ6*01 H100E/S108P/Y113G Y112G & V2-13_IGLJ2*01 (Fab, V domains shown, Tested as Fab made in E. coli (VH-CH1 with His and Flag tags; lambda CL); also called EPG Y112G) VH: not shown VL: SSELTQDPAVSVALGQTVRITCQGDSLRSYYASWYQQKPGQAPVLVIYGKNNRPSGIPDRFSGSSSGNTASLTITGAQAEDEADYYCNSRDSSGNHLVVFGGGTKLTVL	1.2	2.1	2.3	1.4	1.3	7.9	1.7	1	–
